In patent US20200123237A1:

Target: IgG1-S4497 (human)
Experiment: cell-based or functional assay

EC50 of C3b deposition on Wood 46, purified classical pathway system: 0.668 µg/mL
EC50 of C4b deposition on Wood 46, purified classical pathway system: 0.886 µg/mL
EC50 of neutrophil-mediated phagocytic uptake of Wood 46, NHS devoid of IgG and IgM: 0.144 µg/mL
EC50 of neutrophil-mediated phagocytic uptake of Wood 46, intact NHS: 0.096 µg/mL
B1: IgG1-S4497 (antibody, not shown: a dimerising Fc or GST)
heavy: EVQLVESGGGLVQPGGSLRLSCSASGFSFNSFWMHWVRQVPGKGLVWISFTNNEGTTTAYADSVRGRFIISRDNAKNTLYLEMNNLRGEDTAVYYCARGDGGLDDWGQGTLVTVSS
light: DIQLTQSPDSLAVSLGERATINCKSSQSIFRTSRNKNLLNWYQQRPGQPPRLLIHWASTRKSGVPDRFSGSGFGTDFTLTITSLQAEDVAIYYCQQYFSPPYTFGQGTKLEIK
